Legend:
[1] = target: Toll-like receptor 4 on the surface of RAW 264.7 murine macrophages (mouse (endogenous in RAW 264.7)) (UniProt Q9QUK6)
[2] = target: Toll-like receptor 4 on the surface of RAW 264.7 murine macrophages (mouse (endogenous in RAW 264.7)) (UniProt Q9QUK6); remark: listed apart in the source
[3] = target: Toll-like receptor 4 on the surface of RAW 264.7 murine macrophages (mouse (endogenous in RAW 264.7)) (UniProt Q9QUK6); remark: listed apart in the source

Chain of UniProt Q9QUK6 (Q9QUK6 26-835): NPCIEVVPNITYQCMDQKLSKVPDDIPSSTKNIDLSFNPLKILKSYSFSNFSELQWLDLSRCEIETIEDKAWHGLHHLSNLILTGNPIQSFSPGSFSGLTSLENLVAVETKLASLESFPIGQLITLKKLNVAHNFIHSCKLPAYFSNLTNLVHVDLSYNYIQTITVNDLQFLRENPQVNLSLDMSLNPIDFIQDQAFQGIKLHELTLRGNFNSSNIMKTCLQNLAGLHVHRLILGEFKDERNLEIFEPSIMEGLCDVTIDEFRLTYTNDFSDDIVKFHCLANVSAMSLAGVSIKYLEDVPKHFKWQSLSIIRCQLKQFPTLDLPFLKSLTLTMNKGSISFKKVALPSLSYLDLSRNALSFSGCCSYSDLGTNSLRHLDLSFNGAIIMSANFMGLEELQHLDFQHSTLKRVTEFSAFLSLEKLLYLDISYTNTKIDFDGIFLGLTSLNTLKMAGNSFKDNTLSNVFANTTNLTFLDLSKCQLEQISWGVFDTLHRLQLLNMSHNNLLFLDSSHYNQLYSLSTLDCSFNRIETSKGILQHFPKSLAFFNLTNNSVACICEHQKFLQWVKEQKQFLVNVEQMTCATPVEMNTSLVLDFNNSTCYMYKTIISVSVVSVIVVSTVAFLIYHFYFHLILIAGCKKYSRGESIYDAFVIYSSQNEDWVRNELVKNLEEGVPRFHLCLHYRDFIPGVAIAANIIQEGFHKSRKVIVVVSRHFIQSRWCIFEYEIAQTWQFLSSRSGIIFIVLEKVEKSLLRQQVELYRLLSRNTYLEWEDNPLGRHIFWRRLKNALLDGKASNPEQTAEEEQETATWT

In the case of “recombinant Rv0297PGRS (PGRS domain of the Mycobacterium tuberculosis PE_PGRS protein Rv0297) (from UniProt Q6MX50 1-591) (domain or fragment)”, the mortality of RAW 264.7 macrophages (alamarBlue assay, 48 h) with 2.5, 5, 10, 20 and 40 µg/ml rRv0297PGRS (12.42% to 36.07%); no significant change in RAW-ΔTLR4 cells [1] is reported as 36.1%, the fold increase of NO (Griess reagent) in RAW 264.7 cells stimulated with 20 µg/ml rRv0297PGRS for 30 h in contrast to unstimulated cells; unchanged in RAW-ΔTLR4 cells [2] is reported as 2 fold and the fold increment of ROS (CellROX green) in RAW 264.7 cells stimulated with rRv0297PGRS for 30 h compared to untreated cells (1.53 and 1.80); unchanged in RAW-ΔTLR4 cells [2] is reported as 1.8 fold. It also gave a total percentage of apoptotic RAW 264.7 cells (annexin V/PI staining) with 20 and 40 µg/ml rRv0297PGRS (43.83% and 58.37%) [3] of 58.4%.

Reference: paper PMC6016250
